T1: cMR1 (core RAG1, MBP fusion);cMR2 (core RAG2, MBP fusion) (;, UniProt P15919;P21784 384-1040;1-387, |)
T1 sequence 1: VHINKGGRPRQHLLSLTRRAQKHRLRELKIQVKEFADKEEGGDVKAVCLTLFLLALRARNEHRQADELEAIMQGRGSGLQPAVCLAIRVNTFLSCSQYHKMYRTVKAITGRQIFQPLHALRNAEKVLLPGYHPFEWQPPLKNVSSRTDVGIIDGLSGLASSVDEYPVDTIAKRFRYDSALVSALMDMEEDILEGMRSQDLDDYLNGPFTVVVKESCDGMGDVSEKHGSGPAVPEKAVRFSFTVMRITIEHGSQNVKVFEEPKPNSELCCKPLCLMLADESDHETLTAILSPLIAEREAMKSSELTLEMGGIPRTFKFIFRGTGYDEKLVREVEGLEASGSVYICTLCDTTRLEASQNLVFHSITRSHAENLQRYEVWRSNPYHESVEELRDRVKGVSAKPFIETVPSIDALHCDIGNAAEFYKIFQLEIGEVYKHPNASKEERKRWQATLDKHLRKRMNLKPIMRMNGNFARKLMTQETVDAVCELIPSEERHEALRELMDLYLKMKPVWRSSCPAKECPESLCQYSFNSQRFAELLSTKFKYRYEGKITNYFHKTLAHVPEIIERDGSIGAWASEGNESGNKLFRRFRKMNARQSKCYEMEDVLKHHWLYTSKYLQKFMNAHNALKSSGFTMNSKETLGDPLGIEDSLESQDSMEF
T1 sequence 2: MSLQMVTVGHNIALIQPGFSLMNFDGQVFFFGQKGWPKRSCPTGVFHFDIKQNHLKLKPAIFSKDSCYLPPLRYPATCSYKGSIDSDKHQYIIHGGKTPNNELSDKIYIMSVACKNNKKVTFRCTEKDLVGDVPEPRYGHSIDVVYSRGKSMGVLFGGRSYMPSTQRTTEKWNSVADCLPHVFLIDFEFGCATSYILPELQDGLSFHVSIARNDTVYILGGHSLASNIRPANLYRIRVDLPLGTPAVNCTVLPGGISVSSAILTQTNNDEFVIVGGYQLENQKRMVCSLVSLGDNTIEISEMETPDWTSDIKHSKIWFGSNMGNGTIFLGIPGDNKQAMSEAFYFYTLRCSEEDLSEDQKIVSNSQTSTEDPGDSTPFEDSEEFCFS


Assays:
HMGB1 full-length [1] = biological target: T2, HMGB1 full-length (UniProt P09429 1-215); assay: EMSA; conditions: EMSA as in ref 30; binding buffer, salt, pH and temperature not given in the material; scale: fold more protein needed than for bps6197
HMGB1 Tailless [2] = biological target: T3, HMGB1 Tailless (UniProt P09429 1-163); assay: EMSA; conditions: EMSA as in ref 30; binding buffer, salt, pH and temperature not given in the material; scale: fold more protein needed than for bps6197
HMGB1 full-length [3] = biological target: T2, HMGB1 full-length; assay: EMSA; 0-320 ng HMGB1; EMSA as in ref 30; binding buffer, salt, pH and temperature not given in the material; conditions: protein: recombinant; tags: N-terminal His6; label: 5' radiolabel, top strand; blunt
HMGB1 Tailless [4] = biological target: T3, HMGB1 Tailless; assay: EMSA; 0-140 ng tailless HMGB1; EMSA as in ref 30; binding buffer, salt, pH and temperature not given in the material; conditions: protein: recombinant; tags: N-terminal His6; label: 5' radiolabel, top strand; blunt
[5] = biological target: cMR1 (core RAG1, MBP fusion);cMR2 (core RAG2, MBP fusion);HMGB1 full-length (;;, UniProt P15919;P21784;P09429 384-1040;1-387;1-215, ||); assay: EMSA; with HMGB1; similar to 23-RSS; EMSA as in ref 30; binding buffer, salt, pH and temperature not given in the material; conditions: protein: recombinant;recombinant;recombinant; tags: N-terminal MBP;N-terminal MBP;N-terminal His6; chain copies: 2;1;1; label: 5' radiolabel, top strand; blunt
[6] = biological target: T1, cMR1 (core RAG1, MBP fusion);cMR2 (core …); assay: EMSA; without HMGB1; similar to 23-RSS, slightly more susceptible to cold 23-RSS; EMSA as in ref 30; binding buffer, salt, pH and temperature not given in the material; conditions: protein: recombinant;recombinant; tags: N-terminal MBP;N-terminal MBP; chain copies: 2;1; label: 5' radiolabel, top strand; blunt

T2 sequence (P09429 whole entry): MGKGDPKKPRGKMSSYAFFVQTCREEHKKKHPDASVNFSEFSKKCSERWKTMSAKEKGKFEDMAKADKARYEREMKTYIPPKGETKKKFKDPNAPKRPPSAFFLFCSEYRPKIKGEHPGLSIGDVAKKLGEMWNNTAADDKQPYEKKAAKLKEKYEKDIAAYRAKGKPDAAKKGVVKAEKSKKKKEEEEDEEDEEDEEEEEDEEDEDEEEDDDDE
T3 sequence (P09429 1-163): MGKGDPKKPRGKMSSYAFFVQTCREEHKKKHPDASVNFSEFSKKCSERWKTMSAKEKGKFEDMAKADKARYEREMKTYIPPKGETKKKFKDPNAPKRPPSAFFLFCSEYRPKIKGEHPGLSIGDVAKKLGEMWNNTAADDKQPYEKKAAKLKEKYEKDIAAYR
cMR1 (core RAG1, MBP fusion);cMR2 (core RAG2, MBP fusion);HMGB1 full-length, sequence (P09429 whole entry, the tested form may be a part, one chain of several): as the sequence (P09429 whole entry) above

| Molecule | binding signal (HMGB1 full-length [1]) | binding signal (HMGB1 Tailless [2]) | binding signal (HMGB1 full-length [3]) | binding signal (HMGB1 Tailless [4]) | binding result [5] | binding result [6] |
| --- | --- | --- | --- | --- | --- | --- |
| 23-RSS (consensus) | 1.5 | 1.5 |  |  |  |  |
| bps6197 (dsDNA) DNA 1: TCCCCGAAAAGTGCCACCTGACGTCTAAGAAACCATTATTATCATGACATTAACCTATAAA DNA 2: TTTATAGGTTAATGTCATGATAATAATGGTTTCTTAGACGTCAGGTGGCACTTTTCGGGGA |  |  | ~1.5 fold less protein needed than for 23-RSS | ~1.5 fold less protein needed than for 23-RSS | binds | binds |
